Source: patent publication US20130266516, “LAR Protein-Specific Ligand” (COMMISSARIAT A L'ENERGIE ATOMIQUE ET AUX ENERGIES, published 2013)

Columns and labels:
Conditions in all cases: label: radiolabel, biotin or Alexa Fluor 647/680
[1] = target: T1, LAR protein (PTPRF, receptor-type protein tyrosine phosphatase F), endogenous on human cell lines (Homo sapiens, UniProt P10586 SEQ:30-1907); experiment: MCF-7 whole cells, Scatchard analysis of radioligand-type cell binding; Cmax 251 pM
Protocol: (§1) The binding curves were obtained for each cell type. From the specific binding, and using the Scatchard representation, the Kd and the Cmax were calculated for each cell type. Knowing the Cmax and the number of cells during the binding, the inventors were able to deduce therefrom an approximate number of targets per cell.

[2] = target: T1, LAR protein (PTPRF, receptor-type …); experiment: HEK293-KDR whole cells, Scatchard; Cmax 119 pM
Protocol: as §1

[3] = target: T1, LAR protein (PTPRF, receptor-type …); experiment: A-431 whole cells, Scatchard; Cmax 455 pM
Protocol: as §1

[4] = target: T1, LAR protein (PTPRF, receptor-type …); experiment: HEK293 whole cells, Scatchard; Cmax 264 pM
Protocol: as §1

[5] = target: T1, LAR protein (PTPRF, receptor-type …); experiment: MDA-MB-231 whole cells, Scatchard; Cmax 131 pM
Protocol: as §1

T1 sequence (P10586 30-1907): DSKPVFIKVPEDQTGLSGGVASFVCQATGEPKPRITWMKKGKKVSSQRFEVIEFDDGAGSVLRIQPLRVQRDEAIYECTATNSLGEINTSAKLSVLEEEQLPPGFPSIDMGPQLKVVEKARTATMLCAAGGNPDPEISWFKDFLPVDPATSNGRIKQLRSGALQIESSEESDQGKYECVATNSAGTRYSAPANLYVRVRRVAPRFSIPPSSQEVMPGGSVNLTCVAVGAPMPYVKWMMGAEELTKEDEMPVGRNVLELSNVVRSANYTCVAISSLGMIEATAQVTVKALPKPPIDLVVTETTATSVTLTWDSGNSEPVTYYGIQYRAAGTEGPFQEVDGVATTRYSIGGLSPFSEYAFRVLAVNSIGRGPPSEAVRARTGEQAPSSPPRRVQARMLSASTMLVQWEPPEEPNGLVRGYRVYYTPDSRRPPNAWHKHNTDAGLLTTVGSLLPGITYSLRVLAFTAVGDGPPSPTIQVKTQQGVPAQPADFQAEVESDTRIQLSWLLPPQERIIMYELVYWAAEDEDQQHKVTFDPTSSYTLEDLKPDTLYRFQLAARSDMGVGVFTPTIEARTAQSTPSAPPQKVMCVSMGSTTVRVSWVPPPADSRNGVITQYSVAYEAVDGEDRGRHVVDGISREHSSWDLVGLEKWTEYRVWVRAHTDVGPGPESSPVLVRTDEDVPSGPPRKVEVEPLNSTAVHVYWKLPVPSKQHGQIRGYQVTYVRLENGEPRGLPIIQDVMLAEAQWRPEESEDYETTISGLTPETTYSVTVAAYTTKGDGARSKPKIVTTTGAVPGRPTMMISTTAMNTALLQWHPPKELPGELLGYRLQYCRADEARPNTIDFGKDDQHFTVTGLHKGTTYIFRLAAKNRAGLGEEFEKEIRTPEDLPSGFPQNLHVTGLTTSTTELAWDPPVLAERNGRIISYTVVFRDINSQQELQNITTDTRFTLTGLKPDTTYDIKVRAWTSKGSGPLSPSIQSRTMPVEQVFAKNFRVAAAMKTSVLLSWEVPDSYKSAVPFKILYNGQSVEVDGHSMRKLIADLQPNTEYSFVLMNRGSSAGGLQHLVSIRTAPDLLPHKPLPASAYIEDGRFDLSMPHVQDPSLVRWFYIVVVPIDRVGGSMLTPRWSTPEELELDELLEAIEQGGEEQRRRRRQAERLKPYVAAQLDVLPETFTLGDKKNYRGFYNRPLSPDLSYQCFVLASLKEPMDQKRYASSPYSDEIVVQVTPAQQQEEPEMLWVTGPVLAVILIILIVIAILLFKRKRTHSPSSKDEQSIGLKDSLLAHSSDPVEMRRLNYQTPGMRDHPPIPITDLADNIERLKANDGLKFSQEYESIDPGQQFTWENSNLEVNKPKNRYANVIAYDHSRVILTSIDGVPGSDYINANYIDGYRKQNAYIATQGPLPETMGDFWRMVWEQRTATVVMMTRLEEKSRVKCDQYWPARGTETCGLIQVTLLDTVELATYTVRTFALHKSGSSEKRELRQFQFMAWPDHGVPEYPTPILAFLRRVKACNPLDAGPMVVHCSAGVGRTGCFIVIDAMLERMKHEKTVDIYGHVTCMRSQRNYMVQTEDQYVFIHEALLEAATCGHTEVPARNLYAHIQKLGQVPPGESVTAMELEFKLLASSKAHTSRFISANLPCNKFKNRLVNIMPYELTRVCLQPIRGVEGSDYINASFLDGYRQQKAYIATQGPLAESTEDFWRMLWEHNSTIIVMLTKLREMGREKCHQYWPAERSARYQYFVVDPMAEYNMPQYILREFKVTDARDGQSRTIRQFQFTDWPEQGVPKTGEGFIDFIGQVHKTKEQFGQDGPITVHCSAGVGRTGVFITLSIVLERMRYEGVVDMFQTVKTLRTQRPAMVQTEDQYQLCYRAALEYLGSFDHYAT

B1: V8 aptamer (ssRNA)
RNA: GGGAGAUGCUCUGUCAGACUACGACUGUCCCAGUAUGACGCGACUGCUUAGGUGGGAUGUUUCCCAUGCCUCGACUGGCUGGCAGGUUGAUGACAAG
modifications: 2'-F on all pyrimidines, 2'-OH purines
- Kd [1]: 1.6 nM
- Kd [2]: 5.3 nM
- Kd [3]: 5.6 nM
- Kd [4]: 3.8 nM
- Kd [5]: 3 nM
